Experimental data taken from the nanobody polyreactivity screen of Harvey et al. (2022).

Assay: yeast display, Sf9 membrane polyspecificity reagent, FACS + sequencing; frameworks hold sequencing errors
Outline: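 Genes from sorted yeast were amplified by colony PCR, read by MiSeq 2 × 250 sequencing and filtered on CDR length. These cells carried a synthetic nanobody library in Saccharomyces cerevisiae BJ5465 and were sorted by FACS into low and high (top ~1%) gates on anti-HA and streptavidin fluorescence. Polyreactivity is labelled according to the gate of origin.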

Row | Sequence | polyreactivity (PSR sort gate)
1 | QVQLVESGGGLVQAGGSLRLSCAASGRTFYVNTMGWYRQAHGKEKDLVARITRGGSTYYADSVKGRFTISRDNAKNTVYLQMNSLKPEDTAVYYCATDHFPVYSTHVIYEFDYWGQGTQVTVSS | low polyreactivity
2 | QVQLVESGVGVVQAGGSLRLSCAASGSTYVDNAMGWYRQAPGKERELVAGNSWSGASTYYADSVKGRFTISRDNAKNTFYLQMNSLKAEDTAVYYCATRVRAYYHQSWGYTERVYWGQGTQVTVSS | high polyreactivity
3 | QVQLVESGGGLVQAGCSLRLSCAASGSIFDTNAKGWYRQAPGKERELVAAIYDNTGRTYYADSVKGRFTISRDNSKNTVYLQMNSQKPEDTAVYYCNAPRYYWISFARWPASYYYWGQGTQVTVSS | high polyreactivity
4 | QVQLVESGGCLVQAGGSLRLSCAASGSIFGYYAMGWYRQAPGKERELVAAISYSGGSTYYADSVKGRFTISRDTAKNTVYLQMNSLKPEDTAVYYCNAVTSWAYWRGPRYDYWGQGTQVTVSS | high polyreactivity
5 | QVQLVESGGGLVQAGGSLRLSCAASGGTIAYNAMGWYRQAPGKERELVAAISSSGGRTYYADSVKGRFTISRDNAKNTVYLQMNSLKPEDTAVYFCATPVNNGFDYWGQGTQVTLSS | high polyreactivity
6 | QVQLVESGGGLVQAGGSLRLSCAASGRILYIYAMGWYRQAPGKERELVASISWTDGSTYYADSVKGRFTISRDNAKNTVYLQMNSLKPEDTAVYYCNAAYYYYWDLKKYNYWGQGTQVTVSS | low polyreactivity
7 | QVQLVESGGGLVQAGGSLRLSCAASGLIFQVYDMGWYRQAPGKERELVAAISSGSNTNYADSVKGRFTISRDNAKNTVYLQMNSRKPEDTAVYYCAASWGYGALTPDMGYWGQGTQVTVSS | low polyreactivity
8 | QVQLEESGGGLVQAGGSLRLSCAASGITFRAYAMGWYRQAPGKERELVAAITGRGGRTYYADSVKGRFTISRDNAKNTVYLQMNSLKPEDPAVYYCNAYLWRVNQTYDYWGQGTQVTVSS | high polyreactivity
9 | QVQLVESGGGLVQAGGSLRLSCAASGSTLGKYAMGWYRQAPGKERELVARITLNGGRTYYADSVKGRFTISRDNAKNTVYLQMNSLKPEDTAVYYCAKSLPHSTSRDYWGQGTQVTVSS | low polyreactivity
10 | QVQLVESGGGLVQAGGSLRLSCAASGLTFSYYAMGWYRQAPGKERELVAAISSSGGSTYYADSVKGRFTISRDYAKNTVYLQMTSLKPEDTAVYYCATAASPVRKRYDYWGQGTQVTVSS | high polyreactivity
11 | QVHLVESGGGLVQAGGSLRLSCAASGRIFQRNVMGWYRQAPGKERELVASITGGGTTNYADSVKGRFTISRDNAKNTVYLQMNSLKPEDTAVYYCAKGYGASNDPGYVRKRYGYWGQGTQVTVSS | low polyreactivity
12 | QVQLVESGGGLVQAGGSLRLSCAASGSTFTAKAMGWYRQAPGKERELVASISARDGSTYADSVKGRFTISRDNAKNTVYLQMNSLKPEDTAVYYCNAAYFHIFPYDYDYWGQGTQVTVSS | low polyreactivity
13 | QVQLVESGGGLVQAGGSLRLSCAASGRTFAENAMGWYRQAPGKESELVAAISETGSRTYYADSVKGRFTISRDNAKNTVYLQMNSLKPEDTAVYYCAARSWHGVLWSYRHDYWGQGTQVTVSS | low polyreactivity
14 | QVQLVESGGGLVQAGGSLRLSFAASGRIFYQYAMGWYRQAPGKERELVAAINSYGGRTYYADSVKGRFTISRDNAKYTVYLQMNSLKPEDTAVYYCAKLRVPYYAEYGYWGQGTQVTVSS | high polyreactivity
15 | QVQLVESGGGLVQAGCILRLSCAASGRIYVKAMGCYRQPPGIERELVAAIRSGGSTNYADSVKGLFTISRDNAKNTVYLQMNSLKPEDTAVYYCDAPYRLSKYDYWGQGTQVTESS | high polyreactivity
16 | QVQLVESAGGLVQAGGSLRLSCAASGSISGYAMGWYRQAPGKQRELVAAISRRGGSTYYADSVKGRFTISRDNEKNTVYLQMNSLKPEDTAVYFCAADPYTRQPNSDRYYWGQGTQVTVSS | high polyreactivity
17 | QVQLVESGGGLVQAGGSLRLSCAASGYTFGYYAMGWYRQAPGKERELVAAISWRGARTNYADSVKGRFTISRDNAKNTVYLQMNSLKPEDTAVYYCAAGYYYGYPPRDYWGQGTQVTVSS | high polyreactivity
18 | QVQLVESGGGLVQAGGILRLRCAASGSTYGYYAMGWSRQAPGKERELVAAISGSGGRTYYADSVKGRFTISRDNAKNTVYLQMNSLKPEDTAVYYCNTATKNIYDYCGQGTQVTVSS | high polyreactivity
19 | QVQLVESGGGLVQAGGSLRLSGAASGFNLEPNAMGWYRQAPGKERELVATISFSGGGTYYADSVKGRFTISRDNAKNTVYLQMNSLKPEDTAVYYCAADWYYYVWWYDYWGQGTQVTVSS | high polyreactivity
20 | QVQLVESGGGLVQAGGSLRLSCAASGRTLYHYGMGWYRQAPGKERELVAAINFSGGSTNYADSVKGRFTISRDNAKNTVYLQMNSLKPEDTAVYYCNNEGRPDRDYWGQGTQVTVSS | low polyreactivity
21 | QVQLVESGGGLDQAGGSLRLSCAASGSTFKHNAMGWYRQAPGKERKLVAGISWGGSSTYYADSVKGRFTISRDNAKNTVYLQMNSLKPEDTAVYYCAKGGYRRYGYDYWGQGTQETVSS | low polyreactivity
22 | QVQLVESGGGLVQAGGRLRLTCAASGLTFYSYAMRCYRQAPAKERELVAAISWTGGSTYYADSEKGRFTISRDNAKNTVYLQMNSLKPEDTAVYYCAAVDYWVSGDYYWGQGTQVTVSS | high polyreactivity

Row | Sequence | polyreactivity (PSR sort gate)
23 | QVQLVESGGGLVQAGGSLRLSCAASGSIFLFYALGWSRQAPGKERELVATINWSGCTTYYADSVKGRFTISRDNAKNTVYFQMNSLKPEDNAFYYCAAYSVYGRYGRTFYYWGQGTQVTVSS | high polyreactivity
24 | QVQLVESGGGLVQAGGSLRLSCAASGFTISYYAMGWYRQAPWKERELVASISSSGGRTYYADSVKGRFTISRDNAKNTVYLQMNSLKPEDTAVYYCAAVGGRSTRGYYWGQGTQVTVSS | high polyreactivity
25 | QVQLQESGGGMVLAGGSLRLSCSASGTISVYGTMGWYRQAPGKEREFVATIDPGTHTNYADSVKDRFTISRDNAKNTVYLKMNSLKPEVTAVYSCAVEAGSDWPYRYWGQGTQVTVSS | low polyreactivity
26 | QVQLVESGGGLVQAGGSLRLSCAASGFTYGRYAMGWYRQAPGKERELVAVISWSGVSTYYADSVKGRFTISRDNAKNTVYLQMNSLKPEDTAVYYCNKRSYHYPYGYDYWGQGTQVTVSS | high polyreactivity
27 | QVQLVESGGGLVQAGGSLRLSCAASGFTFYRYAMGWYRKAPGKERELVAAITRSGSRTYYADSVKGRFTISRDNAKNTVYLQMNSLKPEDTAVYYCKTDGGDHPTARYGYWGQGTQVTVSS | high polyreactivity
28 | QVQLVESGGGLVQAGGSLRLSCAASGSTIDWYGMGWYRQAPGKERELVAAINFSDGSTYYADSVKGRFTISRDNAKNTVYLQMNSLKPEDTAVYYCAAFTPSYGGRDYWGQGTQVTVSS | low polyreactivity
29 | QVQLVESGGGLVQAGGSLRLSCAASGSTFPINTMGWYRQAPGKERELVAAITHSGGRTYYADSVKGRFTISRVNAKNTVYLQMNSLKPEDTAVYYCNAVRYYAVRVSDGDYDYWGQGTQVTVSS | low polyreactivity
30 | QVQLVESGGGLVQAGGRLRLSCAASGRTFYYYAMGWYRQAPGKERELVASITYRGTRTNYADSVKGRFTISRDNAKNTVYLQMNILKPEDTAVYSCNAEVYTGYGYWGQGTQVTVSS | high polyreactivity
31 | QVHLVESGGGLVQAGGSLRLSCAASGSIFDYYDMGWYRQAPGKERELVASITWSGGRTSYADSVKGRFTISRDNAKNTVYLQMNSLKPEDNAVYYCNARGFRGEYDYWVQGTQVTVSS | high polyreactivity
32 | QVQLVESGGGLVQAGGSLRLSCAASGRIFYRYAMGWYRQAPGKEREFVAAISGTGGSTYYADSVKGRFTISRDNAKNTVYLQMNSLKPEDTAVDYCAASVVSRPTYYAYYYWGQGTQVTVSS | high polyreactivity
33 | QVQLVESGGGLVQAGGSLRLSCAASGSIFTAYAMGWYRQAPGKERELVAAISYGGGSTYYADSVKGRFTISRDNAKNTVYLQMNSLKPEDTAVYYCAAASSGEYGYWGQGTLVTVSS | low polyreactivity
34 | QVQLVESGGGLVQAGGSLRLSCAASGSILEYYAMGWYRQAPGKERELVAGISSAGNTYYADSVKGRFTISRDNAKNTVYLQMNSLKPEDTAVYYCAAVPWSGEYDYWGQGTQVTVSS | low polyreactivity
35 | QVQLVESGGGLVQAGGSLRLSCAASGSTFSYYAMGWYRQAPGKERELVAAIRKSGGSTYYADSVKGRFTISRDNAKNTVYLQMNSLKPEDTAVYSCAAVFSYYGWYSRYDYWGQGTQVTVSS | low polyreactivity
36 | QVQLVESGGGLVQAGGSLRLSCAASGITIGRYAMGWYRPAPGKERELVAAISSTGGRTYYADSVKGRFTISRDNAKNTVYLQMNSLKPEDTAVYYCAAGRRRPFGRNDYWGQGTQVTVSS | high polyreactivity
37 | QVQLVESGGGLVQAGGSLRLSCAASGRIFRSNAMGWYRQAPGKERELLAAISGSGSTTNYADSVKGRITISRDNAKNTVYLQMNSLKPEDTAVYYCATGKRGVSGRGFRYDYWGLGTQVTVSS | high polyreactivity
38 | QVQLVESGGGLVQAGGSLRLSCAASGRIFIYNAMGWYRQATGKERELVAAISYRGGSTYYADSVKGRFTISRDNAKNTVYLQMNSLKPEDTAVYYCNAKIVQYGAHNYWGQGTQVTVSS | high polyreactivity
39 | QVQLVESGGGLVQAGGSLRLSCAASGSIFSGYTMGWYRQAPGKERELVAAISSDGSTTYADSVKGRFTISRDNAKNTVYLQMNSLKPEDTAVYYCAAYPYWDGSYGGYDYWGQGTQVTVSS | low polyreactivity
40 | QVQLVESGGGLVQAGGSLRLSCAASGFTFSKYAMGWYRPAPGKERELVAAISGSGGSTYYADSVKGRFTISRDNAKITVYLQMNSLKPEDTAVYYCAADGPGKYDYWGQGTQVTVSS | high polyreactivity
41 | QVQLVESARGLVQAGGSLRLRCAASGSTLSVYVMGWYRQAPGKERELVAAITRGGSTNYADSVKGRFTISRDNAKNTVYLQINSLNPEDTAVYYCAARSFVYYHHGEGSRSGRYYYWGQGTQVTVSS | high polyreactivity
42 | QVQLVESGGGLVQAGGSLRLSCAASGSTFTSYAMGWYRQAPGKEREFVAAISWSGGSTYYADSVKGRFTISRDNAKNTVYLQMNSLKPEDTAVYYCNAVLRSYYSPWYDYWGQATQVTVSS | high polyreactivity
43 | QVQLVESGGGLVQAGGSLRLSCAASGRIFIGNAMGWYRQAPGKERELVAAISKRGGSTYYADSVKGRFTISRDNAKNTVYLQMNSLKPEDTAVYYCNTESLYREFDDWGQGTQGTVSS | low polyreactivity
